In one assay the target is T1, ALPG-AF647 (human, UniProt P10696, AF647 fluorophore label, site not given).
T1 construct: soluble labelled staining reagent; Same protein as m5, here as a soluble staining reagent
Nature of the assay: flow cytometry, primary T cells with constitutive CAR and no PrimeR, stained with ALPG-AF647 and MSLN-Bio / streptavidin-PE; reagent concentration not given. Background: A flow cytometer gives signals particle by particle.

Another assay deals with T2, SLC2A9 on THP-1 cells (UniProt Q9NRM0 1-540, limits assumed).
T2 construct: whole, on cells; also called SLC2A9+ cells (THP-1 cells)
T2 sequence (looked up): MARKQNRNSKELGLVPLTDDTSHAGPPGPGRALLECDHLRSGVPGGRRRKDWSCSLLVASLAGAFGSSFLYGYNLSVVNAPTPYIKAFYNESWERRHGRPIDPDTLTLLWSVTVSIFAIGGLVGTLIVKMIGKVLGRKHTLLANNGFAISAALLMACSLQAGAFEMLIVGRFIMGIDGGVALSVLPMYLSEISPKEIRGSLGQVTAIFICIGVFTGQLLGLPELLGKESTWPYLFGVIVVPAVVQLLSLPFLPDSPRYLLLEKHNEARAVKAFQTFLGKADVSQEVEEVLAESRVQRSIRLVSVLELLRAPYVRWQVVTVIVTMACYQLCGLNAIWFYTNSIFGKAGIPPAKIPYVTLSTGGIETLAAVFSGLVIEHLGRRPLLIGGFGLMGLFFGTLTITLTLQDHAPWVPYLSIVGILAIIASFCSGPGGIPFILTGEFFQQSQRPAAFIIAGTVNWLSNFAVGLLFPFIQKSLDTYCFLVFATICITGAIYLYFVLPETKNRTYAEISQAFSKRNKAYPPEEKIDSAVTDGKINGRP
The assay is described as follows: 24 h co-culture of MSLN CAR (LG1 CAR) T cells with THP-1 (SLC2A9+) target cells, end-point luciferase cytotoxicity, RNP-only T cells as control. An excerpt:
(§1) T cells from four donors were engineered to constitutively express the MSLN CAR (LG1 CAR) using the manufacturing process described in Example 1 and were frozen and cryobanked at Day 9 after initial activation. […] On the day of the assay, MSLN CAR and RNP only control T cells were counted and resuspended in medium without IL-7 and IL-15 and serially diluted and added to 96-well flat-bottom, white-walled assay plates. The serial dilution of T cells results in the following co-culture effector:target (E:T) ratios once 1e4 THP-1 or K562 (negative control), K562-MSLN (positive control) and K562-GP2 target cells were added/well: 3:1, 1:1, 1:3 in technical duplicates. Prepared plates with T cells and target cells were incubated at 37° C. for 24 hours with a breathable membrane on each plate. Cytotoxicity at the end of the 24 hour co-culture was measured using an end-point luciferase assay.

A further assay addresses T3, GP2 on K562-GP2 cells (UniProt P55259 29-512, limits assumed).
T3 construct: whole, on cells
Nature of the assay: 24 h co-culture of MSLN CAR (LG1 CAR) T cells with K562-GP2 target cells, end-point luciferase cytotoxicity, RNP-only T cells as control.
Description: as §1

T1 sequence (P10696 20-503 limits assumed): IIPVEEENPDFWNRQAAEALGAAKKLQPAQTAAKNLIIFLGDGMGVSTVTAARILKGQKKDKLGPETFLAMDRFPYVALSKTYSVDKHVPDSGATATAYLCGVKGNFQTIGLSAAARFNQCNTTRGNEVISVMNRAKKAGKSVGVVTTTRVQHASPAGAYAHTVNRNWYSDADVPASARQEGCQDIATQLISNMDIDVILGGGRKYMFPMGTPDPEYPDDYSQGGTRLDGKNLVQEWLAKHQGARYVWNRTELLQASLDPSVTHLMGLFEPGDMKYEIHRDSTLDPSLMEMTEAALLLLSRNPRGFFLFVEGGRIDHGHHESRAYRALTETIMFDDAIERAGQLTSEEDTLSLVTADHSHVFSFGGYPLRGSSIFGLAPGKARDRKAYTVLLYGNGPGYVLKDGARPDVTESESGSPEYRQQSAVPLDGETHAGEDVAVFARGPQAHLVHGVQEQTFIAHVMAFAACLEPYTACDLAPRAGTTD
T3 sequence (P55259 29-512 limits assumed): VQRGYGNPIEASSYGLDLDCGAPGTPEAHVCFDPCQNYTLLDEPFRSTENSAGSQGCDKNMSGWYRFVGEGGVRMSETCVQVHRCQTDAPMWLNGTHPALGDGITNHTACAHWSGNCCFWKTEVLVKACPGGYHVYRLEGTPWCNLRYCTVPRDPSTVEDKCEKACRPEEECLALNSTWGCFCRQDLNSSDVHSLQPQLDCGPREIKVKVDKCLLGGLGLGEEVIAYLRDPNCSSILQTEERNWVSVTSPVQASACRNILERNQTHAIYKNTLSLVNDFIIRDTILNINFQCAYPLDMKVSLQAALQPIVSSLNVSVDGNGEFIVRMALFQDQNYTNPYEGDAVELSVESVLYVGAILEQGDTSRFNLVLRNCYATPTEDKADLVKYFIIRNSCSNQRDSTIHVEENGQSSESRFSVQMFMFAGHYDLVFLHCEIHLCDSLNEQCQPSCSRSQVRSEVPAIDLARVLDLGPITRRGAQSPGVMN

B1: MSLN CAR (LG1 CAR) (other)
chain: QLQLQESGPGLVKPSETLSLTCTVSGGSISNSYYWGWIRQPPGKGLEWIGSIYHSGNTYYNPSLKSRVTISVDTSKNQFSLKLSSVTAADTAVYYCVTQDGVGATTTEEYWGQGTLVTVSSAAATTTPAPRPPTPAPTIASQPLSLRPEACRPAAGGAVHTRGLDFACDIYIWAPLAGTCGVLLLSLVITLYCKRGRKKLLYIFKQPFMRPVQTTQEEDGCSCRFPEEEEGGCELRVKFSRSADAPAYQQGQNQLYNELNLGRREEYDVLDKRRGRDPEMGGKPRRKNPQEGLYNELQKDKMAEAYSEIGMKGERRRGKGHDGLYQGLSTATKDTYDALHMQALPPR
notes: Chimeric antigen receptor on engineered primary human T cells; also called MSLN LG1 CAR
With B1, the binding result with ALPG-AF647 is “no binding”; with SLC2A9 on THP-1 cells, “no binding (tested: E:T 3:1)”; with GP2 on K562-GP2 cells, “no binding (tested: E:T 3:1)”.

The values are drawn from patent publication US20250250350A1 (ARSENAL BIOSCIENCES, published 2025).
